Among the data in article PMC13397619 are enrichment values, retold here.

B1: NLV2 TCR alpha chain (CDR3α only) (parent)
chain: AGPMKTSYDKVI

Variants of B1 are the subject of the first assay. As to the kind of experiment: T-Switch: Jurkat TCRβ−/− cells expressing a CDR3 saturation-mutagenesis library, stained with two peptide-HLA-A*02:01 tetramers (original and novel peptide) plus anti-CD3, FACS-sorted into four gates, gDNA sequenced. Particulars: with both tetramers (double-negative gate, binds neither): HLA-A*02:01 with … and with …, tetramers 1 µg/mL, 30 min on ice, SP, DP and SW gates expanded about 10 days between rounds ('two to three rounds of selection' in the Methods), gate DN: OPPOSITE: higher = more of the variant in the gate that binds neither peptide = LESS binding (or no expression; inferred). Fold enrichment of the CDR3 variant in one FACS gate of a two-tetram, unresolved parent, parent is a CDR3 fragment, scale: fold enrichment, numbering: sequential-on-construct, sequence starts at 1.
[…] (CDR3 as printed); Y8S derived by comparing it with the table's wild-type CDR3 AGPMKTSYDKVI: the enrichment amounted to 0.528.

As for […] (CDR3 as printed); D9G derived by comparing it with the table's wild-type CDR3 AGPMKTSYDKVI, the enrichment is 1.23.

With […] (CDR3 as printed); Y8Q derived by comparing it with the table's wild-type CDR3 AGPMKTSYDKVI, the enrichment was 0.629.

As for […] (CDR3 as printed); T6W derived by comparing it with the table's wild-type CDR3 AGPMKTSYDKVI, the enrichment came out at 1.07.

On to […] (CDR3 as printed); K10H derived by comparing it with the table's wild-type CDR3 AGPMKTSYDKVI, for which the enrichment stood at 0.835.

Turning to […] (CDR3 as printed); I12C derived by comparing it with the table's wild-type CDR3 AGPMKTSYDKVI, the enrichment turned out to be 1.05.

As for […] (CDR3 as printed); G2I derived by comparing it with the table's wild-type CDR3 AGPMKTSYDKVI, the enrichment was 1.1.

Turning to […] (CDR3 as printed); I12V derived by comparing it with the table's wild-type CDR3 AGPMKTSYDKVI, the enrichment stood at 0.739.

As to […] (CDR3 as printed); V11P derived by comparing it with the table's wild-type CDR3 AGPMKTSYDKVI, the enrichment turned out to be 0.923.

Consider […] (CDR3 as printed); I12H derived by comparing it with the table's wild-type CDR3 AGPMKTSYDKVI, for which the enrichment came to 1.04.

Take […] (CDR3 as printed); Y8H derived by comparing it with the table's wild-type CDR3 AGPMKTSYDKVI: the enrichment is 0.969.

In the case of […] (CDR3 as printed); M4N derived by comparing it with the table's wild-type CDR3 AGPMKTSYDKVI, the enrichment was 0.728.

Consider […] (CDR3 as printed); V11M derived by comparing it with the table's wild-type CDR3 AGPMKTSYDKVI, for which the enrichment stood at 1.2.

Regarding […] (CDR3 as printed); A1T derived by comparing it with the table's wild-type CDR3 AGPMKTSYDKVI, the enrichment is 0.871.

Take […] (CDR3 as printed); M4H derived by comparing it with the table's wild-type CDR3 AGPMKTSYDKVI: the enrichment worked out at 0.903.

With […] (CDR3 as printed); A1E derived by comparing it with the table's wild-type CDR3 AGPMKTSYDKVI, the enrichment stood at 0.767.

For the variant […] (CDR3 as printed); Y8P derived by comparing it with the table's wild-type CDR3 AGPMKTSYDKVI, the enrichment amounted to 1.08.

Regarding […] (CDR3 as printed); K5E derived by comparing it with the table's wild-type CDR3 AGPMKTSYDKVI, the enrichment amounted to 0.392.

With […] (CDR3 as printed); D9C derived by comparing it with the table's wild-type CDR3 AGPMKTSYDKVI, the enrichment was found to be 0.717.

In the case of […] (CDR3 as printed); K5F derived by comparing it with the table's wild-type CDR3 AGPMKTSYDKVI, the enrichment was 0.857.

[…] (CDR3 as printed); M4Q derived by comparing it with the table's wild-type CDR3 AGPMKTSYDKVI: the enrichment was 0.551.

As to […] (CDR3 as printed); K5W derived by comparing it with the table's wild-type CDR3 AGPMKTSYDKVI, the enrichment amounted to 0.659.

Turning to […] (CDR3 as printed); S7K derived by comparing it with the table's wild-type CDR3 AGPMKTSYDKVI, the enrichment was found to be 1.32.

For […] (CDR3 as printed); T6P derived by comparing it with the table's wild-type CDR3 AGPMKTSYDKVI, the enrichment is 0.299.

Consider […] (CDR3 as printed); G2S derived by comparing it with the table's wild-type CDR3 AGPMKTSYDKVI, for which the enrichment stood at 1.02.

Still in this assay, the particulars now being: with both tetramers (double-positive gate): HLA-A*02:01 with … and with …, tetramers 1 µg/mL, 30 min on ice, SP, DP and SW gates expanded about 10 days between rounds ('two to three rounds of selection' in the Methods), gate DP: higher = more of the variant in the gate that binds both peptides. Fold enrichment of the CDR3 variant in one FACS gate of a two-tetramer stain. SP/DP/SW gates were expanded and re-sorted bef, unresolved parent, parent is a CDR3 fragment, scale: fold enrichment, numbering: sequential-on-construct, sequence starts at 1.
Take […] (CDR3 as printed); Y8S derived by comparing it with the table's wild-type CDR3 AGPMKTSYDKVI: the enrichment turned out to be 0.

With […] (CDR3 as printed); D9G derived by comparing it with the table's wild-type CDR3 AGPMKTSYDKVI, the enrichment was 0.

Turning to […] (CDR3 as printed); Y8Q derived by comparing it with the table's wild-type CDR3 AGPMKTSYDKVI, the enrichment amounted to 0.

[…] (CDR3 as printed); T6W derived by comparing it with the table's wild-type CDR3 AGPMKTSYDKVI: the enrichment came to 0.

As for […] (CDR3 as printed); K10H derived by comparing it with the table's wild-type CDR3 AGPMKTSYDKVI, the enrichment turned out to be 0.

As for […] (CDR3 as printed); I12C derived by comparing it with the table's wild-type CDR3 AGPMKTSYDKVI, the enrichment worked out at 0.

For the variant […] (CDR3 as printed); G2I derived by comparing it with the table's wild-type CDR3 AGPMKTSYDKVI, the enrichment was determined as 0.

[…] (CDR3 as printed); I12V derived by comparing it with the table's wild-type CDR3 AGPMKTSYDKVI: the enrichment came to 0.

For the variant […] (CDR3 as printed); V11P derived by comparing it with the table's wild-type CDR3 AGPMKTSYDKVI, the enrichment was 0.

Take […] (CDR3 as printed); I12H derived by comparing it with the table's wild-type CDR3 AGPMKTSYDKVI: the enrichment was 0.

Regarding […] (CDR3 as printed); Y8H derived by comparing it with the table's wild-type CDR3 AGPMKTSYDKVI, the enrichment was determined as 0.

As for […] (CDR3 as printed); M4N derived by comparing it with the table's wild-type CDR3 AGPMKTSYDKVI, the enrichment was 0.

In the case of […] (CDR3 as printed); V11M derived by comparing it with the table's wild-type CDR3 AGPMKTSYDKVI, the enrichment came out at 0.

Turning to […] (CDR3 as printed); A1T derived by comparing it with the table's wild-type CDR3 AGPMKTSYDKVI, the enrichment is 0.

[…] (CDR3 as printed); M4H derived by comparing it with the table's wild-type CDR3 AGPMKTSYDKVI: the enrichment came out at 0.

Regarding […] (CDR3 as printed); A1E derived by comparing it with the table's wild-type CDR3 AGPMKTSYDKVI, the enrichment is 0.

Consider […] (CDR3 as printed); Y8P derived by comparing it with the table's wild-type CDR3 AGPMKTSYDKVI, for which the enrichment was found to be 0.

As for […] (CDR3 as printed); K5E derived by comparing it with the table's wild-type CDR3 AGPMKTSYDKVI, the enrichment was 0.

As to […] (CDR3 as printed); D9C derived by comparing it with the table's wild-type CDR3 AGPMKTSYDKVI, the enrichment was 0.

Regarding […] (CDR3 as printed); K5F derived by comparing it with the table's wild-type CDR3 AGPMKTSYDKVI, the enrichment came to 0.

As to […] (CDR3 as printed); M4Q derived by comparing it with the table's wild-type CDR3 AGPMKTSYDKVI, the enrichment worked out at 0.

Consider […] (CDR3 as printed); K5W derived by comparing it with the table's wild-type CDR3 AGPMKTSYDKVI, for which the enrichment was determined as 0.

Take […] (CDR3 as printed); S7K derived by comparing it with the table's wild-type CDR3 AGPMKTSYDKVI: the enrichment is 0.

For the variant […] (CDR3 as printed); T6P derived by comparing it with the table's wild-type CDR3 AGPMKTSYDKVI, the enrichment came to 0.

Regarding […] (CDR3 as printed); G2S derived by comparing it with the table's wild-type CDR3 AGPMKTSYDKVI, the enrichment amounted to 0.
